Experimental findings from patent US20220112292A1 (ALETA BIOTHERAPEUTICS, published 2022) are described below.

In assay [1] the target is T1, CLL-1 on U937 cells (human, UniProt Q5QGZ9 1-265).
T1 construct: whole, on cells; also called CLEC12A; Clec12A
T1 sequence: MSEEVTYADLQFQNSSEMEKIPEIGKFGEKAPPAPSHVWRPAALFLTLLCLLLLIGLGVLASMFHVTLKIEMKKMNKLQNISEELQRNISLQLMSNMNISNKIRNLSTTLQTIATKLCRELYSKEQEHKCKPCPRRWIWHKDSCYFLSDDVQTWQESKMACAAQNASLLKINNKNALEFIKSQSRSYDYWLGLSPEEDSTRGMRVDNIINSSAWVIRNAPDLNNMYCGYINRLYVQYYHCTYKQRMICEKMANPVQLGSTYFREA
As to the kind of experiment: flow cytometry on U937 cells, VHH at 3 ug/ml, detected with a-His-PE; a-His-PE alone 1.1% and 5,576.5, unstained 0.6% and 5,793.5. How it is done:
U937 cell binding by VHH clones was assessed. Briefly, the method included: U937 cells (2.5×10\hat{ }5) were Fc blocked (human Fc block, BD Cat. #BDB564220) for 10 min at room temperature, then washed once with FACS buffer (PBS+1% BSA+0.1% Sodium Azide) by spinning at 500G for 2 min; VHH clones (3 μg/ml as final conc) in FACS buffer were added to the cell pellets and incubated for 30 min at 4° C., then washed twice with FACS buffer by spinning at 500G for 2 min; anti-His-PE (R&D Systems, Cat. #IC050P) was added to cells; the mixture was incubated for 30 min at 4° C. and washed twice with FACS buffer by spinning at 500G for 2 min; 1% PFA (Paraformaldehyde) in PBS was added to cell pellet to fix the cells, followed by FACS analysis. VHH clones tested: 1B5: stock=1.6 mg/ml; 1H1: stock=1.9 mg/ml; 1G6: stock=1.1 mg/ml; 2F3: stock=1.45 mg/ml; 2F5: stock=0.5 mg/ml; 2H3: stock=2 mg/ml. As shown in FIGS. 2A-2C, binding of clones 1H1, 1G6, 2F5 and 2H3 to U937 cells was detected with anti-His-PE; very little binding of clones 1B5 and 2F3 to U937 cells could be detected by anti-His-PE.
(In flow cytometry, cells or beads pass a laser one at a time.)

Assay [2] has as its target T1, CLL-1 on U937 cells. The assay is described as follows: flow cytometry on U937 cells, clone lysate, anti-cMyc-PE (Table 3 summary).
In assay [3] the target is T2, Clec12A-His (Sino Biological, 11896-H07H) (human, UniProt Q5QGZ9 65-265).
T2 construct: Bought soluble protein; also called soluble CLEC12a-His; Sino Biological Clec12A
T2 chain: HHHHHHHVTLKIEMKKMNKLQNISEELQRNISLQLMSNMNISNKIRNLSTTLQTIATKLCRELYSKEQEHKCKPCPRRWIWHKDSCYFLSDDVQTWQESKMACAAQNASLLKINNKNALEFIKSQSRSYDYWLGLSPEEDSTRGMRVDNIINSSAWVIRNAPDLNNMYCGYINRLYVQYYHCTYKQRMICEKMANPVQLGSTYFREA
As to the kind of experiment: ELISA on plate coated with CLEC12a-His; unlabeled VHH at 10 ug/ml first, biotinylated VHH at 0.2 ug/ml second, streptavidin-HRP. The method, then:
ELISAs were used to determine if the VHH clones recognized distinct or similar epitopes. […] The plate was blocked with 0.3% nonfat milk in TBS (200 ul/well) for 1 hr at RT. The plates were washed 3× with 1×TBST (0.1 M Tris, 0.5 M NaCl and 0.05% Tween-20). The test anti-CLEC12a VHHs were added at 10 ug/ml horizontally across the plate, 100 ul per well and incubated for 1 h. Without washing, the test anti-CLEC12a biotinylated VHHs were added at 0.2 ug/ml vertically down the plate, 100 ul per well and incubate for 1 h. After being washed 3× with 1×TBST, HRP-conjugated streptavidin (Pierce #21130) at 1:2000 (100 ul/well) was added, followed by incubation at RT in the dark for 1 hr. For detection, 1-Step Ultra TMB-ELISA reagent (Thermo Fisher #34028) was added at 100 ul per well and read at 450 nm. […] The 1H1 VHH was distinct from these, and 2C2 was intermediate. Results are depicted in FIGS. 7A-7D.
(In an ELISA, binding on a coated surface is turned into a signal by an enzyme label.)

Assay [4] deals with T1, CLL-1 on U937 cells. As to the kind of experiment: flow cytometry on U937 cells, 3x serial dilutions from 3 ug/ml, anti-His-PE. How it is done: (§1) U937 cell binding by VHH clones was assessed using varying doses to determine EC50s. Briefly, the method included: VHH clones (3 ug/ml as starting conc./test, with 3× serial dilutions) in FACS buffer were added to Fc blocked U937 or 293T-CLL1 cells (2.5×10\hat{ }5), the mixtures were incubated for 30 min at 4° C., then washed twice with FACS buffer by spinning at 500G for 2 min; anti-His-PE was added to cells, the mixture was incubated for 30 min at 4° C. and washed twice with FACS buffer by spinning at 500G for 2 min; 1% PFA (Paraformaldehyde) in PBS was added to cell pellet to fix the cells, followed by FACS analysis. VHH clones tested: 1B5: stock=1.6 mg/ml; 1H1: stock=1.9 mg/ml; 1G6: stock=1.1 mg/ml; 2F3: stock=1.45 mg/ml; 2F5: stock=0.5 mg/ml; 2H3: stock=2 mg/ml.

Assay [5] addresses T1, CLL-1 on U937 cells. The assay is described as follows: flow cytometry on U937 cells, VHH in 3-fold dilutions, detected with a-His-PE; percent of cells positive. How it is done: as §1
The target in assay [6] is T1, CLL-1 on U937 cells. As to the kind of experiment: flow cytometry on U937 cells, % binding against ng/ml, detected with a-His-PE; EC50 of the fitted curve. The method, then: as §1

B1: VHH clone 1B5 (VHH)
VHH: QVQLQESGGGLVQAGGSLRLSCVVSGATSNVNAMGWYRQAPGKERELVAAISSGGSTSYRDSVKGRFTISRDNAKNTLYLQMNSLKPEDTAMYYCAAQDWATEGYEYDYWGQGTLVTVSS
notes: Includes myc and His tags
As to B1, in assay [1], the “% of This Plot (R3 PE+)” value was 2.3% and the “Mean FL2-A (R3 gate)” value was determined as 4130.

B2: VHH clone 2A8 (VHH)
VHH: QVQLQAFGGGMVQAGESLRLSCVASGNDISGSAMAWYRAHLGAERELVAVDAPRERPFYIDPVIGRFTISRDDRNKMLYLQMNDLRPDDTATYWCGPSLRTFHGREWYRPPWFTSWGQGTQVTVSS
notes: Includes myc and His tags
Turning to B2, the “% FACS positive” value in assay [2] was 40.1%.

B3: VHH clone 1D2 (VHH)
VHH: QVQLQQSGGGLVQPGGSLRLSCAASGFAFDDYAMIWVRQGPGKGLEWVSSISWNGGGTYYAESIVGRFTVSRDNAKKMVYLQMNGLKSEDTAMYYCVKLVDSGWYSAYDYWGQGTQVTVSS
notes: Includes myc and His tags
On to B3, for which the “% FACS positive” value in assay [2] turned out to be 14.6%.

B4: VHH clone 1A10 (VHH)
VHH: QVQLQESGGGLVQVGESLRLSCVVSGDTRSINLMGWYRQAPGKQRELVAACASDGNTYYADSVKGRFTISRDNAEKTVYLQMNNLKPDDTAVYYCDANSRGNYYSGQGTLVTVSS
notes: Includes myc and His tags
Turning to B4, in assay [3], the binding result is on record as “binds”. In assay [2], the “% FACS positive” value is 84.9%.

B5: VHH clone 1B1 (VHH)
VHH: QVQLQESGGGLVQAGGSLRLSCAASGSIFAINEINLMGWYRQAPGKQRELVAACASDGNTYYADSVKGRFTISRDNAEKTVYLQMNNLKPDDTAVYYCDANSRGNYYSGQGTQVTVSS
notes: also called 2A6; 2A10
Take B5: the binding result in assay [3] is reported as “binds”.

B6: VHH clone 2A11 (VHH)
VHH: QVQLQESGGGLVQPGGSLRLSCAASGSIFAINEINLMGWYRQAPGKQRELVAACASDGNTYYADSVKGRFTISRDNAEKTVYLQMNNLKPDDTAVYYCDANSRGNYYSGQGTLVTVSS
notes: Includes myc and His tags
B6: the “% FACS positive” value in assay [2] came out at 86.3%.

B7: VHH clone 2C8 (VHH)
VHH: QVQLVESGGGLVQAGGSLRLSCAASGSIFAINEINLMGWYRQAPGKQRELVAACASDGNTYYADSVKGRFTISRDNAEKTVYLQMNNLKPDDTAVYYCDANSRGNYYSGQGTLVTVSS
notes: Includes myc and His tags
Consider B7, for which the “% FACS positive” value in assay [2] turned out to be 73.4%.

B8: VHH clone 1G6 (VHH)
VHH: QVQLQQSGGGLVQAGGSLRLSCAASGSIFAINEINLMGWYRQAPGKQRELVAACASDGNTYYADSVKGRFTISRDNAEKTVYLQMNNLKPDDTAVYYCDANSRGNYYSGQGTQVTVSS
notes: includes myc and His tags; also called 2G11; 2H2
Broadly, the EC50 is the concentration giving half of the maximal effect. The low end stands for a more potent agent, the high end for a less potent agent. B8 displayed an EC50 in assay [4] of 0.49 nM. Moreover, the binding result in assay [3] is “binds”. In assay [5], the “% binding at 1.4 ng/ml” value is 6%, the “% binding at 4.1 ng/ml” value came to 26.8%, the “% binding at 12.3 ng/ml” value came to 56.7% and the “% binding at 37.0 ng/ml” value worked out at 83.1%. Further, in assay [5], the “% binding at 111.1 ng/ml” value is 87.7%, the “% binding at 333.3 ng/ml” value is 88.2%, the “% binding at 1000 ng/ml” value came to 88.6% and the “% binding at 3000 ng/ml” value came out at 88.9%. In assay [6], this molecule had an EC50 of 7.72 ng/mL. In assay [1], the “% of This Plot (R3 PE+)” value is 95.6% and the “Mean FL2-A (R3 gate)” value was 9310.

B9: VHH clone 2H10 (VHH)
VHH: QVQLQEFGGGLVQAGGSLRLSCAASGSIFAINEINLMGWYRQAPGKQRELVAACASDGNTYYADSVKGRFTISRDNAEKTVYLQMNNLKPDDTAVYYCDANSRGNYYSGQGTQVTVSS
notes: includes myc and His tags; also called 1G3
As for B9, the “% FACS positive” value in assay [2] was 85.9%.

B10: VHH clone 2F5 (VHH)
VHH: QVQLQQSGGGLAQTGGSLILSCAASGSIFAINEINLMGWYRQAPGKQRELVAACASDGNTYYADSVKGRFTISRDNAEKTVYLQMNNLKPDDTAVYYCDANSRGNYYSGQGTQVTVSS
notes: Includes myc and His tags
In the case of B10, the EC50 in assay [4] is 0.47 nM. The binding result in assay [3] is recorded as “binds”. Besides, the “% FACS positive” value in assay [2] is 72.7%. Moreover, in assay [5], the “% binding at 1.4 ng/ml” value was 4.6%, the “% binding at 4.1 ng/ml” value stood at 24.2%, the “% binding at 12.3 ng/ml” value worked out at 59.3% and the “% binding at 37.0 ng/ml” value stood at 83.1%. Further, in assay [5], the “% binding at 111.1 ng/ml” value turned out to be 86%, the “% binding at 333.3 ng/ml” value was determined as 86.7%, the “% binding at 1000 ng/ml” value came out at 85.9% and the “% binding at 3000 ng/ml” value worked out at 86.4%. Moreover, a half-maximal response in assay [6] (EC50) required 7.45 ng/mL. In addition, in assay [1], the “% of This Plot (R3 PE+)” value came to 95.5% and the “Mean FL2-A (R3 gate)” value was determined as 9260.

B11: VHH clone 2F3 (VHH)
VHH: QVQLQAFGGGLVQPGGSLRLSCVVSGTMFSGKDVNWLRQAPGKHVEVVATVSSDGGTDYADFVKGRFTISRDDAKNTVNLQMNSLEPEDTANYMCHFLWGRHYWGQGTQVTVSS
notes: Includes myc and His tags
Regarding B11, in assay [1], the “% of This Plot (R3 PE+)” value is 12.4% and the “Mean FL2-A (R3 gate)” value came out at 3570.

B12: VHH clone 1B11 (VHH)
VHH: AVQLQESGGGLVQAGGSLRLSCAASGSDRSINVMNWYRQAPGKQRELVAAITSGGTTNYAQSVKGRVTISRDSAKNTVYLQMNSLKPEDTAVYFCKADTRWGGMYWGPGTQVTVSS
notes: Includes myc and His tags
Consider B12, for which the “% FACS positive” value in assay [2] worked out at 77.8%.

B13: VHH clone 2G10 (VHH)
VHH: QVQLQQSGGGLVQAGGSLRLSCAASGSIFSINAMGWYRQAPGKRREMVAVVSRFGETTYTGSVKGRFTISRINRNNTVFLQMNRLKPEDTAVYYCNARIRGNYGSRIDYWGQGTQVTVSS
notes: Includes myc and His tags
As for B13, the “% FACS positive” value in assay [2] turned out to be 59.7%.
